Results published in the Human Domainome abundance scans (Beltran et al. 2025).
± gives the uncertainty stated by the source.

B1: Friend leukemia integration 1 transcription factor, residues 116 to 197; numbered along this chain, Q01543 (parent)
chain: NMTTNERRVIVPADPTLWTQEHVRQWLEWAIKEYSLMEIDTSFFQNMDGKELCKMNKEDFLRATTLYNTEVLLSHLSYLRES
B2: Transcription factor SOX-4, residues 60 to 127; numbered along this chain, Q06945 (parent)
chain: KRPMNAFMVWSQIERRKIMEQSPDMHNAEISKRLGKRWKLLKDSDKIPFIREAERLRLKHMADYPDYK

Variants of: B1
Test: abundance fitness (aPCA) (normalised: wild type 0, dead -1); higher = more abundant; growth selection in yeast, the domain comes from the species named
Settings: Homo sapiens

Variant	abundance fitness
T65N	-0.042 ± 0.17
T65Q	-0.235 ± 0.091
T65V	-0.966 ± 0.14
T65C	-0.028 ± 0.12
T65K	-0.47 ± 0.13
T65S	-0.011 ± 0.067
T65L	-0.615 ± 0.12
T65P	-0.085 ± 0.11
T65G	-0.058 ± 0.058
T65W	-1.03 ± 0.23
T65H	-0.283 ± 0.26
T64P	-0.704 ± 0.18
T64I	-0.793 ± 0.46
T64K	-0.796 ± 0.27
T64S	-0.613 ± 0.16
T64M	-0.02 ± 0.15
T64C	-0.505 ± 0.27
T64Q	-0.1 ± 0.083
T64R	-0.807 ± 0.075
T64W	-0.537 ± 0.15
T64L	-0.262 ± 0.11
T64A	-0.404 ± 0.12

Variant	abundance fitness
T64E	-0.792 ± 0.34
T64G	-0.126 ± 0.14
T64N	-0.531 ± 0.28
Y67N	-0.014 ± 0.23
Y67L	-0.125 ± 0.057
Y67G	0.017 ± 0.1
Y67H	0.085 ± 0.21
Y67T	-0.006 ± 0.047
Y67R	0.079 ± 0.061
Y67P	-0.008 ± 0.11
Y67F	-0.219 ± 0.15
Y67W	-0.153 ± 0.092
Y67Q	0.059 ± 0.092
Y67D	-0.027 ± 0.13
Y67A	-0.051 ± 0.087
Y67M	-0.111 ± 0.083
Y67S	0.074 ± 0.072
Y67C	-0.058 ± 0.12
Y67V	0.064 ± 0.078
Y67K	-0.045 ± 0.11
Y67E	0.212 ± 0.08

Variants of: B2
Test: as above
Settings: Homo sapiens

Variant	abundance fitness
R33G	-0.283 ± 0.064
F49K	-0.879 ± 0.17
R16V	-0.111 ± 0.038
E20D	-0.255 ± 0.16
E20M	-0.239 ± 0.087
M8Q	0.193 ± 0.059
H26E	0.024 ± 0.095
H26M	-0.182 ± 0.093
I30H	-1.11 ± 0.17
M4G	-0.311 ± 0.063
I50G	-0.309 ± 0.07
P48Y	-0.566 ± 0.1
A62E	-0.078 ± 0.068
W38G	-0.744 ± 0.05
W38H	-0.548 ± 0.14
S22V	-0.272 ± 0.042
K46L	-0.652 ± 0.063
Y67I	0.11 ± 0.15
I47V	-0.086 ± 0.037
M61R	-0.134 ± 0.057
M19L	0.116 ± 0.041

Variant	abundance fitness
N5Q	-0.585 ± 0.12
N5P	-0.546 ± 0.11
D24P	-0.564 ± 0.11
L34R	-0.981 ± 0.14
L34V	-0.83 ± 0.18
R15V	-0.495 ± 0.044
Q21A	-0.169 ± 0.065
Q21M	-0.244 ± 0.1
L41P	-0.728 ± 0.21
L41Y	-0.807 ± 0.17
K1M	-0.214 ± 0.15
R57C	-0.048 ± 0.13
G35K	0.262 ± 0.083
G35L	0.168 ± 0.041
N27I	-0.192 ± 0.054
N27F	-0.245 ± 0.057
Q12S	-0.134 ± 0.06
A28K	-0.099 ± 0.086
R2K	-0.135 ± 0.12
E29C	-0.394 ± 0.2
